Assay results reported in PMC1420652, “Purified Wnt5a Protein Activates or Inhibits β-Catenin–TCF Signaling Depending on Receptor Context” (PLoS Biology, 2006).

T1: purified Wnt5a protein (mouse) (mouse, UniProt P22725 62-380)
T1 construct: Wnt5a, mouse; The protein needs detergent to stay in solution; also called mWnt5a
T1 sequence (looked up): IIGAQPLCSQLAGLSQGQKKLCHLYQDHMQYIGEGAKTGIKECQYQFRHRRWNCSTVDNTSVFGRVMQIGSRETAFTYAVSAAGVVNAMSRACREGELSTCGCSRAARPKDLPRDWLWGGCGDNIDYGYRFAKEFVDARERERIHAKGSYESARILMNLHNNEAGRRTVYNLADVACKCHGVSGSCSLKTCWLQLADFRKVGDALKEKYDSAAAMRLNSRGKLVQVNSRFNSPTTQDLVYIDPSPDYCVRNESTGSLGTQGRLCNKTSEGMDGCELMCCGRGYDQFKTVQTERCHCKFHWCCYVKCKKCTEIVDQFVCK


Molecular target: T1, purified Wnt5a protein (mouse)
Test: pull-down; purified CRD-IgG proteins bound to protein A-Sepharose beads (4 h, 4 °C), incubated overnight at 4 °C with purified Wnt5a protein, washed 4 times with TNT buffer (50 mM Tris-HCl, 150 mM NaCl, 1% Triton X-100), Western blot
Settings: both partners purified

binding result	Binder
binds	mRor2 CRD-IgG (Fc fusion, source: 293 cells stably secreting the protein, purified from serum-free conditioned media (protein A column); not shown: immunoglobulin heavy chain domain (IgG), C-terminal, kept) not shown
binds	mRor2 NT CRD-IgG (Fc fusion, signal peptide in the construct; source: 293 cells stably secreting the protein, purified from serum-free conditioned media (protein A column); not shown: immunoglobulin heavy chain domain (IgG), C-terminal, kept) not shown
